In the supplement of paper PMC9732359:
± gives the uncertainty stated by the source.

Assay: protein stability index of a GFP-peptide fusion (yeast GPS) (PSI 1-4); higher = more stable; sorted into four equal gates, so the index is relative within each strain
Procedure, shortened: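 Tiled 17-residue yeast protein peptides were fused downstream of GFP in a plasmid that also expresses Cherry, and the pooled library was carried in yeast. Mid-log cultures in leucine-free medium were sorted into four equal gates by GFP/Cherry fluorescence ratio, and plasmids from each gate were PCR-amplified and Illumina-sequenced, with reads assigned to strains by barcodes. The protein stability index for each peptide was each gate's read frequency times its gate number, summed.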

Sequence	protein stability index (doa10∆)	protein stability index (pdr5∆)	protein stability index (san1∆)	protein stability index (ubr1∆)
IGQIIFSVRTKDSNKDV [RPL10]	2.18 ± 0.05	2.49 ± 0.048	2.21 ± 0.065	2.79 ± 0.051
MEDIEKIKPYVRSFSKA [LRP1]	2.64 ± 0.062	3 ± 0.05	2.51 ± 0.069	2.74 ± 0.038
LGMGKAVEKTLALGCHF [POP7]	1.98 ± 0.097	2.16 ± 0.08	2.6 ± 0.1	2.38 ± 0.088
VVLSFSGLNADSRILIE [PRE6]	2.87 ± 0.15	3.26 ± 0.2	3.19 ± 0.072	3.3 ± 0.13
YGTATADDADIEMKDVS [MED1]	3 ± 0.13	3.17 ± 0.081	3.01 ± 0.061	3.15 ± 0.071
NLRTQVTQQKRSLDENR [SMC1]	3.24 ± 0.12	3.09 ± 0.066	2.91 ± 0.092	3.07 ± 0.086
SDKIPYVAPTKKEYIEL [SRB4]	2.77 ± 0.1	2.7 ± 0.1	2.32 ± 0.11	2.8 ± 0.12
PHANPITHAHSLSNPNS [PGD1]	2.87 ± 0.046	2.99 ± 0.045	2.77 ± 0.038	2.94 ± 0.03
LALEIIVRPAKGVATTR [RRP46]	2.09 ± 0.058	2.18 ± 0.065	1.86 ± 0.078	2.25 ± 0.051
HTQDIIGGMRVDENGDP [RET1]	3.2 ± 0.084	3.32 ± 0.073	3.17 ± 0.055	3.37 ± 0.054
RGAWGKPHGLAARVDIG [RPL10]	2.59 ± 0.064	1.99 ± 0.04	1.68 ± 0.08	2.35 ± 0.037
EAMLRENIEVILSNGRM [SNF12]	2.79 ± 0.063	2.82 ± 0.061	2.86 ± 0.046	2.75 ± 0.059
QKSSKENIENEEYVINL [ECM29]	3.02 ± 0.1	3.32 ± 0.086	2.75 ± 0.082	3.02 ± 0.082
KKEEEEQLSEEDAKLKT [RPN1]	3.19 ± 0.16	3.24 ± 0.07	3.34 ± 0.11	3.06 ± 0.14
LDKNLIKLVKQNDELKF [RPC34]	1.16 ± 0.077	1.21 ± 0.073	1.43 ± 0.18	2.18 ± 0.1
AKYHAKLNKKLQHLRSR [SRP68]	3.3 ± 0.088	3.44 ± 0.078	3.26 ± 0.046	3.07 ± 0.059
KQANNFLWPFKLSNPSG [RPL7A]	2.69 ± 0.13	3.02 ± 0.12	3.09 ± 0.1	2.74 ± 0.11
KTRNPLTHSTPKNFGIG [RPL8A]	3.02 ± 0.084	2.9 ± 0.058	2.95 ± 0.046	3.07 ± 0.054
ASLNALKESIKNSTSSM [RPN1]	3.07 ± 0.087	3.25 ± 0.098	3.06 ± 0.063	3.16 ± 0.076
KSVYETPKITAAEKSFK [SEC65]		2.08 ± 0.19		1.53 ± 0.08
VVRIKGINKIPPKPRKV [RPL7A]	1.94 ± 0.043	2.21 ± 0.055	2.57 ± 0.063	2.44 ± 0.047
TGWITQSTPVLLNHGER [RPN1]	2.61 ± 0.061	2.23 ± 0.044	1.88 ± 0.056	2.53 ± 0.037
MASLPHPKIVKKHTKKF [RPL32]	2.41 ± 0.088	2.97 ± 0.093	2.22 ± 0.088	2.83 ± 0.075
LVYDVKGRFAVHRITDE [RPS4A]	3.25 ± 0.078	3.08 ± 0.11	3.46 ± 0.07	3.29 ± 0.068
LRFGEGASGEERLMSRP [PUP2]	3.52 ± 0.15	3.36 ± 0.12	3.21 ± 0.1	3.23 ± 0.065
IKNLTVQLSPSNPQHII [RGR1]	2.6 ± 0.052	2.74 ± 0.05	2.42 ± 0.062	2.67 ± 0.049
EKWISSKNSKLSIICVG [SIR3]	1.82 ± 0.091	1.52 ± 0.075	1.37 ± 0.17	1.23 ± 0.073

Sequence	protein stability index (doa10∆)	protein stability index (pdr5∆)	protein stability index (san1∆)	protein stability index (ubr1∆)
PEENATEGPSDKKLNLN [SNF12]		3.59 ± 0.17	3.27 ± 0.099	3.29 ± 0.1
DPNEVEIKKLLATNSLV [DIS3]	2.19 ± 0.049	1.82 ± 0.048	2.35 ± 0.057	2.29 ± 0.046
VQYKLLSISVPSDVNID [SNU114]	1.98 ± 0.076	2.5 ± 0.069	2.1 ± 0.074	2.44 ± 0.069
YLLSIWVKKFKWAGIKT [CYT1]	2.38 ± 0.16	1.57 ± 0.099	2.17 ± 0.098	2.29 ± 0.17
ISKTTLTLDPRYIWRSL [RPN3]	2.75 ± 0.1	2.61 ± 0.082	2.5 ± 0.085	2.6 ± 0.15
SPISDSRDELIRLAKTL [RPN10]	1.84 ± 0.095	1.77 ± 0.084	2.37 ± 0.16	2.24 ± 0.085
EQGIELEHIDSKSEFAH [FAS2]	2.88 ± 0.096	2.15 ± 0.12	3.08 ± 0.13	2.15 ± 0.16
KFSLPFEQKGSQTTTND [YLR335W/NUP2]	3.25 ± 0.1	3.08 ± 0.1	3.11 ± 0.099	3.09 ± 0.094
DLSLLGYCDDIAAMVAQ [SIR2]	2.56 ± 0.06	2.08 ± 0.043	2.82 ± 0.052	2.24 ± 0.041
GDTVQFAEYIQANIQLY [PRE1]	2.11 ± 0.065	2.31 ± 0.063	2.2 ± 0.064	2.04 ± 0.053
IHIQETQEFSKNYTTET [SIR3]	3.39 ± 0.1	3.15 ± 0.11	3.4 ± 0.16	3.31 ± 0.069
KSLHEMNERDWRILKED [PRP28]	3.4 ± 0.19	3.05 ± 0.2	3.33 ± 0.072	3.01 ± 0.23
EPIKVNVRVGQAVETVG [RPN1]	1.41 ± 0.16	2.26 ± 0.11	2.47 ± 0.11	2.44 ± 0.15
VTSEKYPFDKLESWWLV [BRR2]	2.42 ± 0.29	2.91 ± 0.19	2.79 ± 0.12	3.3 ± 0.087
TLSVSHGINLQNKKNLK [SSN2]	2.7 ± 0.062	2.62 ± 0.054	2.65 ± 0.077	2.78 ± 0.063
IDMIADENGTNSAIANE [RPC37]				3.17 ± 0.11
NVTQNEQQWITRAQYLA [SRP68]	1.42 ± 0.08	1.54 ± 0.072	1.19 ± 0.13	1.28 ± 0.064
KAEVTQLSNGIVVATEH [COR1]	2.58 ± 0.17	3.15 ± 0.11	3.18 ± 0.18	2.96 ± 0.11
YITAKNNVVINFKDMSH [PRP8]	2.26 ± 0.052	2.02 ± 0.047	2.42 ± 0.063	2.14 ± 0.043
LQSLNESKDLLRASFNK [SRB4]	3.16 ± 0.13	3.32 ± 0.13	2.98 ± 0.083	3.48 ± 0.075
VHELSKRVHTLLTLIVR [ISW2]	1.34 ± 0.091	1.44 ± 0.064	1.96 ± 0.16	1.37 ± 0.041
SFDEWFNTPFANTGGQD [SNF2]	2.8 ± 0.099	2.99 ± 0.12	3.41 ± 0.095	3.15 ± 0.15
KAKSHFTNIISRNKALE [YJL039C/NUP192]	2.66 ± 0.079	2.01 ± 0.053	2.39 ± 0.13	2.68 ± 0.075
MNGIQVDINRLKKGEVS [PRE3]	2.15 ± 0.095	1.57 ± 0.063	2.52 ± 0.082	1.36 ± 0.061
SYRNAFTNVLTKYSDVL [YJL039C/NUP192]	2.12 ± 0.052	1.72 ± 0.059	2.36 ± 0.066	2.13 ± 0.048
LKSGLPLSGLLFKNYRF [YMR129W/POM152]	3.65 ± 0.18	2.52 ± 0.2	3.63 ± 0.057	
